The record followed here is PMC4557296 (2015).

The target in this assay is unlabelled HP1α (human, UniProt P45973 1-191).
Chain of unlabelled HP1α (P45973 whole entry): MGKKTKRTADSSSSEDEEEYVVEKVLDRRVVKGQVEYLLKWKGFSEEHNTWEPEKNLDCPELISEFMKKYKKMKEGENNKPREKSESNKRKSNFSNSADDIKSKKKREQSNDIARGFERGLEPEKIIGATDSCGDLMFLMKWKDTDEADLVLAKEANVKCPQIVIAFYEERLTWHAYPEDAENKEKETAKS

The term Kd denotes the equilibrium constant for the complex coming apart. Higher therefore signals a looser complex. ARTKQTARKSTGGK (trimethyl-lysine at K9) [H3K9me3 1–14 peptide] had a Kd of 7.57 µM.
